Results reported in PMC6141617 (2018).

B1: 14-3-3β (purified alone) (natural protein)
chain: MTMDKSELVQKAKLAEQAERYDDMAAAMKAVTEQGHELSNEERNLLSVAYKNVVGARRSSWRVISSIEQKTERNEKKQQMGKEYREKIEAELQDICNDVLELLDKYLIPNATQPESKVFYLKMKGDYFRYLSEVASGDNKQTTVSNSQQAYQEAFEISKKEMQPTHPIRLGLALNFSVFYYEILNSPEKACSLAKTAFDEAIAELDTLNEESYKDSTLIMQLLRDNLTLWTSENQGDEG

Tests used:
[1] = molecular target: GFP-ExoS^419-453; test: FP
[2] = molecular target: B1; test: FP

Work on B1 yielded a Kd [1] of roughly 370 nM.

B2: GFP-ExoS^233–419 (domain or fragment)
chain: ADKALADGLVKRFGADAEKYLGRQPGGIHSDAEVMALGLYTGIHYADLNRALRQGQELDAGQKLIDQGMSAAFEKSGQAEQVVKTFRGTRGGDAFNAVEEGKVGHDDGYLSTSLNPGVARSFGQGTISTVFGRSGIDVSGISNYKNEKEILYNKETDMRVLLSASDEQGVTRRVLEEAALGEQSGHS
With B2 the Kd [2] was greater than 100 nM.
